In assay [1] the target is T1, cynomolgus monkey SIRPγ on CHO cells (cynomolgus monkey, UniProt Q9P1W8 29-386 (human entry)).
T1 construct: also called Cyno SIRPγ CHO
T1 chain: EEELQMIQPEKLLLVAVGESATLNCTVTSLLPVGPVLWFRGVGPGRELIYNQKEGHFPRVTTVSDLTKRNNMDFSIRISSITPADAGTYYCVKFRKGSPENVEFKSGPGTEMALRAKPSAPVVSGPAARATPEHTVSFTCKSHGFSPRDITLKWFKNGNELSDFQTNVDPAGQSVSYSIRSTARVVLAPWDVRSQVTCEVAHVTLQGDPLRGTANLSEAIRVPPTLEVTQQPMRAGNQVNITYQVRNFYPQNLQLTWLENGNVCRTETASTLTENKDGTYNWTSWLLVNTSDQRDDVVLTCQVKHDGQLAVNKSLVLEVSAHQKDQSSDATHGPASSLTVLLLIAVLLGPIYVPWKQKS
In words: flow cytometry, CHO transfectants, anti-human IgG. In outline:
(§1)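 Read-out is median fluorescence intensity for each antibody concentration, measured after a titration series is bound to stably transfected CHO cells and stained with labelled anti-human IgG. The scFv data come from myc-tagged crude PPE, also run on parental CHO-K1, where fold change below 2.0 denotes no binding.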

The target in assay [2] is T2, human SIRPγ on stably transfected CHO cells (human, UniProt Q9P1W8 29-387).
T2 construct: also called Human SIRPγ CHO
In words: flow cytometry, CHO transfectants, anti-human IgG. The gist of the method:
as §1
In general terms: In flow cytometry, cells or beads pass a laser one at a time.

The target of assay [3] is T3, human SIRPβ1 on CHO cells (co-transfected with DAP12) (human, UniProt O00241 30-398).
T3 construct: whole, on cells; co-transfected with DAP12; also called Human SIRPβ1 CHO
In words: flow cytometry, CHO transfectants, anti-human IgG. In outline:
as §1

Assay [4] has as its target T4, cynomolgus monkey SIRPα on CHO cells (cynomolgus monkey, UniProt A0A2K5VYQ9 31-507).
T4 construct: whole, on cells; also called Cyno SIRPα CHO
T4 sequence: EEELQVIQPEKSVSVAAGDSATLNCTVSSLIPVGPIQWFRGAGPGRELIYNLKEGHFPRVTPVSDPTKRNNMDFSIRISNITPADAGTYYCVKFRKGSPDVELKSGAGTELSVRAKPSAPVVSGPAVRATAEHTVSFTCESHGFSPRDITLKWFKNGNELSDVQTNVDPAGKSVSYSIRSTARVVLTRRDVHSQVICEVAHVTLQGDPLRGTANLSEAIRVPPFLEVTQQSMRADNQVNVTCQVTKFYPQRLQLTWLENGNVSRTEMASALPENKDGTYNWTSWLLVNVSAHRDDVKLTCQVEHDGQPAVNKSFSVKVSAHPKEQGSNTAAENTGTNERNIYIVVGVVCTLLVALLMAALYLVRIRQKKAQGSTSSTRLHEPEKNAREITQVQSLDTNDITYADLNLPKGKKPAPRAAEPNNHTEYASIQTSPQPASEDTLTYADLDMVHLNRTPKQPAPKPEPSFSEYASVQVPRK
In words: flow cytometry, CHO transfectants, anti-human IgG. The gist of the method:
as §1

For assay [5], the target named is T5, extracellular binding domain of human SIRPγ (plate-coated) (human, UniProt Q9P1W8 29-360).
T5 construct: also called hSIRPγ
In words: ELISA, coated SIRP ECD (2 µg/mL), anti-human IgG, luminescence. The gist of the method: (§2)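 Plate-coated SIRP extracellular domain (2 μg/mL), blocked, then exposed to purified antibodies in titration, after transient expression in Expi293F cells for 5 days and Protein A purification. Bound antibody is detected with anti-human IgG and a chemiluminescent substrate, and reported as relative luminescence units.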
Background: An ELISA detects its analyte on a solid surface through an enzyme-linked reagent.

In assay [6] the target is T6, Cynomolgus Monkey SIRPγ (plate-coated extracellular domain).
T6 construct: also called Cyno SIRPγ
T6 extracellular domain: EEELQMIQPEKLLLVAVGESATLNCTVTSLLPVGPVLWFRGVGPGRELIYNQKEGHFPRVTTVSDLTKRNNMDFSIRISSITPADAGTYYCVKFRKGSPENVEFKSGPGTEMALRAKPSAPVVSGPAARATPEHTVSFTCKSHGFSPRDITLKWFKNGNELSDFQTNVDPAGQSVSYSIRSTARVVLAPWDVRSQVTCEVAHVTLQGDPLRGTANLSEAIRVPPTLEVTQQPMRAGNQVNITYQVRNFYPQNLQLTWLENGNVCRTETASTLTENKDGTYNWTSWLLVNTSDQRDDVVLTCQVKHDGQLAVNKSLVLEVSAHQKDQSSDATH
The description is as above. In outline: as §2

Assay [7] has as its target T7, bivalent human SIRPγ protein with mouse Fc (human, UniProt Q9P1W8 29-360).
T7 construct: also called Human SIRPγ-mFc
In words: BLI Octet, antibody on AHC, global 1:2 model. Here is the method: (§3) Antibodies were coated onto anti-human Fc capture (AHC) biosensors. SIRP-His monomer protein or bivalent SIRP protein with mouse Fc at four concentrations (200 nM, 100 nM, 50 nM, 25 nM) were exposed to the biosensor to measure on-rate kinetics of SIRP antibodies binding to SIRP protein. The biosensors were then exposed to wash buffer to measure off-rate kinetics. The resulting kinetic data were analyzed and fitted using a global 1:2 binding model.
(In general: Biolayer interferometry detects binding as a change in optical thickness at a sensor tip.)

Assay [8] addresses T8, cynomolgus monkey SIRPγ-His monomer protein (cynomolgus monkey, UniProt Q9P1W8 29-359 (human entry), limits assumed).
T8 construct: also called Cyno SIRPγ; Cyno SIRPγ-His
T8 chain: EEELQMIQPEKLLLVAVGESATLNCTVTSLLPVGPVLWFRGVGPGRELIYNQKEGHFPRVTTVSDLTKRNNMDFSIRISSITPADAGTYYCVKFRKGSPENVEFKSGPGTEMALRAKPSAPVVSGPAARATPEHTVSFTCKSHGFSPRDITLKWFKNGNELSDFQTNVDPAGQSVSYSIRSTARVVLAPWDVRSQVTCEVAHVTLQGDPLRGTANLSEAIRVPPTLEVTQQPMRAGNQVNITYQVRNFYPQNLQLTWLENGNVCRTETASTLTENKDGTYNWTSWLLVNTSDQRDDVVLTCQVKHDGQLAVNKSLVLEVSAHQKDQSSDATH
In words: BLI Octet, antibody on AHC, global 1:2 model. On the procedure: as §3

Assay [9] has as its target T9, human SIRPγ-His monomer protein (human, UniProt Q9P1W8 29-360).
T9 construct: also called hSIRPγ
In words: BLI Octet, antibody on AHC, global 1:2 model. Here is the method: as §3

We go through nine molecules from patent publication US20240400677A1 (ELECTRA THERAPEUTICS, published 2024).

T7 sequence (Q9P1W8 29-360 limits assumed): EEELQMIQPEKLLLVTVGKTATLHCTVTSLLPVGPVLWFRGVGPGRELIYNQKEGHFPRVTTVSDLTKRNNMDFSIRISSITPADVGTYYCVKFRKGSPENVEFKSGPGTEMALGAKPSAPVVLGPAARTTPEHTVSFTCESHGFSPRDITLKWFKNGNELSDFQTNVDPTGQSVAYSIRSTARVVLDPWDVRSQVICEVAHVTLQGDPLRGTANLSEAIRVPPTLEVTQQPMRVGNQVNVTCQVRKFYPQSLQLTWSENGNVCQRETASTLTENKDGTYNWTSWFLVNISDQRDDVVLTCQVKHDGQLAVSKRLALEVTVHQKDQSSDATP
T5 sequence (Q9P1W8 29-360 limits assumed): as above
T9 sequence (Q9P1W8 29-360 limits assumed): as above
T2 sequence (Q9P1W8 29-387 limits assumed): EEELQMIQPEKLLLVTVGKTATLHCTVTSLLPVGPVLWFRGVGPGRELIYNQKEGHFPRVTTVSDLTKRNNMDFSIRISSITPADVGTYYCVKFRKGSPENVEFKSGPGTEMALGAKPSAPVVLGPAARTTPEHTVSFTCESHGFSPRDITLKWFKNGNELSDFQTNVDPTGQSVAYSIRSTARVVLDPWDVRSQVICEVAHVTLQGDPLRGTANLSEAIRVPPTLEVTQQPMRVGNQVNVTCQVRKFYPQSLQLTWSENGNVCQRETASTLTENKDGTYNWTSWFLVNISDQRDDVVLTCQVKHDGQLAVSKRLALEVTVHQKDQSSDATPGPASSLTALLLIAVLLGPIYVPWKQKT
T3 sequence (O00241 30-398): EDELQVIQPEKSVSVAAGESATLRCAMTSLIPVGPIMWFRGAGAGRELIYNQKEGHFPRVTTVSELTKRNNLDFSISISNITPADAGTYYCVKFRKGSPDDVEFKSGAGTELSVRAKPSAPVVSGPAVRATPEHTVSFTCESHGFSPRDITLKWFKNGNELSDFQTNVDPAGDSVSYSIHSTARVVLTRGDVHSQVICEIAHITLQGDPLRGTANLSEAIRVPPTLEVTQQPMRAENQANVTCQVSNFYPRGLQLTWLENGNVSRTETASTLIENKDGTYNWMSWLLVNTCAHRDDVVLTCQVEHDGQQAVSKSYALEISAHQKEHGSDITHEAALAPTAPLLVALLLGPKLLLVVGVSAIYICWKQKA

B1: Antibody 57 (antibody, V domains shown)
VH: QVQLVQSGAEVKKPGASVKVSCKASGYTFTSYYMHWVRQAPGQGLEWMGWINPNSGNAGFAQKFQGRVTMTRDTSTSTVYMELSSLRSEDTAVYYCARGPVYSYGPFDYWGQGTLVTVSS
VL: DIQMTQSPSSLSASVGDRVTITCRASQGISTYLAWYQQKPGKAPKLLIYAASTLQSGVPSRFSGSGSGTDFTLTISSLQPEDFATYYCQQSHSAPITFGQGTKVEIK
By EC50 (read off the curve) is commonly meant the concentration giving half of the maximal effect. For B1, the “EC50 (read off the curve)” value was approximately 0.4 µg/mL in assay [1] and approximately 0.6 µg/mL in [2]. Also, the binding result in assay [3] and in assay [4] was “no binding (tested: about 20 µg/mL)” each time.

B2: Antibody 73 (antibody, V domains shown)
VH: QVQLVQSGAEVKKPGASVKVSCKASGGTFSSYDINWVRQAPGQGLEWMGWMNPNSGNTGYAQKFQGRVTMTRDTSTSTVYMELSSLRSEDTAVYYCARDLTLYCSSTSCLDAFDYWGQGTLVTVSS
VL: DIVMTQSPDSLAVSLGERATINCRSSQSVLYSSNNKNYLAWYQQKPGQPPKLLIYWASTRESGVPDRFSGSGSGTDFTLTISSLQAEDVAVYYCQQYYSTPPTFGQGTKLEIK
With B2, the “EC50 (read off the curve)” value in assay [2] is approximately 0.5 µg/mL; in assay [5] it was approximately 0.03 µg/mL; in assay [6] it was approximately 0.05 µg/mL. Further, the binding result in assay [3] and in assay [4] was “no binding (tested: about 20 µg/mL)” in each case.

B3: Antibody 85 (antibody, V domains shown)
VH: QVQLVQSGAEVKKPGASVKVSCKASGYTFTSYDINWVRQAPGQGLEWMGWMNPNSGNTGYAQKFQGRVTMTRDTSTSTVYMELSSLRSEDTAVYYCARESYAYCSSTSCYDAFDIWGQGTMVTVSS
VL: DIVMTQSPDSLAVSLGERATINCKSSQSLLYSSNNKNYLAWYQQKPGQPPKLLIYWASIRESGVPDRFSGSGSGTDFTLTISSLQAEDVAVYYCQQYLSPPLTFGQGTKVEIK
For B3, the binding result in assay [3] and in assay [4] was “no binding (tested: about 30 µg/mL)” in each case. Further, the Kd in assay [7] came to 35.6 nM; in assay [8], 96.1 nM; in assay [9], 96.9 nM.

B4: Antibody 92 (antibody, V domains shown)
VH: QVQLVQSGAEVKKPGASVKVSCKASGGTFSSYDINWVRQAPGQGLEWMGWMNPNSGNTGYAQKFQGRVTMTRDTSTSTVYMELSSLRSEDTAVYYCARDLTLYCSSTSCLDAFDYWGQGTLVTVSS
VL: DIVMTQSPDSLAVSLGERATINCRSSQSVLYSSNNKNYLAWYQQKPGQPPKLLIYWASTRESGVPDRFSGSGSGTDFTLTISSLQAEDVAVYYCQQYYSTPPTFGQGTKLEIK
Take B4: the binding result in assay [3] and in [4] was “no binding (tested: about 30 µg/mL)” each time. Besides, the Kd in [7] was 9.03 nM; in assay [8], 2960 nM; in assay [9], 12.3 nM.

B5: Antibody 82 (antibody, V domains shown)
VH: QVQLVQSGAEVKKPGASVKVSCKASGHTFNNNYIHWVRQAPGQGLEWMGIINPSGGSTSYAQKFQGRVTMTRDTSTSTVYMELSSLRSEDTAVYYCARQIQDYGYYYYGMDVWGQGTTVTVSS
VL: EIVMTQSPATLSVSPGERATLSCRASQSVSKYLAWYQQKPGQAPRLLIYAISARAAGIPARFSGSGSGTEFTLTISSLQSEDFAVYYCQQYYSSPPTFGQGTKVEIK
For the molecule B5, the 50% effective concentration (EC50 (read off the curve)) in [1] is approximately 0.7 µg/mL; in assay [5], approximately 0.01 µg/mL; in [6], approximately 0.03 µg/mL. Besides, the binding result in assay [3] and in assay [4] was “no binding (tested: about 20 µg/mL)” in each case.

B6: Antibody 86 (antibody, V domains shown)
VH: EVQLLESGGGLVQPGGSLRLSCAASGFTLGSYWMHWVRQAPGKGLEWVSLISWDGGSTYYADSVKGRFTISRDNSKNTLYLQMNSLRAEDTAVYYCAKGPWVGYSGYDLNYYYYGMDVWGQGTTVTVSS
VL: DIQMTQSPSSLSASVGDRVTITCRASQDIRRALAWYQQKPGKAPKLLIYAASSLQSGVPSRFSGSGSGTDFTLTISSLQPEDFATYYCLQHNSYPPTFGQGTKLEIK
In the case of B6, the Kd was 3.92 nM in [7], 48.2 nM in [8] and 56.1 nM in [9].

B7: Antibody 79 (antibody, V domains shown)
VH: QVQLVQSGAEVKKPGASVKVSCKASGYTFTSYYMHWVRQAPGQGLEWMGWMNPNSGNTGYAQKFQGRVTMTRDTSTSTVYMELSSLRSEDTAVYYCARDQMYSSYGMDVWGQGTTVTVSS
VL: DIQMTQSPSSLSASVGDRVTITCRASESITNWLAWYQQKPGKAPKLLIYKASSLESGVPSRFSGSGSGTDFTLTISSLQPEDFATYYCQQSYGTPYTFGQGTKVEIK
Take B7: the “EC50 (read off the curve)” value in [1] is approximately 0.5 µg/mL; in [5] it was approximately 0.03 µg/mL; in assay [6], approximately 0.06 µg/mL. For the same molecule, the binding result in [3] and in [4] was “no binding (tested: about 20 µg/mL)” throughout.

B8: Antibody 69 (antibody, V domains shown)
VH: QVQLVQSGAEVKKPGASVKVSCKASGYTFTSYYMHWVRQAPGQGLEWMGWMNPNSDNTGYAQKFQGRVTMTRDTSTSTVYMELSSLRSEDTAVYYCARVGVGYGYYYYGMDVWGQGTTVTVSS
VL: DIQMTQSPSSLSASVGDRVTITCRAGQSIGDYLNWYQQKPGKAPKLLIYAASSLQSGVPSRFSGSGSGTDFTLTISSLQPEDFATYYCQQSYSTPWTFGQGTKVEIK
As to B8, the “EC50 (read off the curve)” value in [1] is approximately 0.6 µg/mL; in assay [2], approximately 0.5 µg/mL. Further, the binding result in assay [3] and in assay [4] was “no binding (tested: about 20 µg/mL)” throughout.

B9: Antibody 89 (antibody, V domains shown)
VH: QVQLVQSGAEVKKPGASVKVSCKASGGTFSSYAISWVRQAPGQGLEWMGIINPSSSSTGYAQKFQGRVTMTRDTSTSTVYMELSSLRSEDTAVYYCARAGYYDSSGYYYSPYYGMDVWGQGTTVTVSS
VL: EIVMTQSPATLSVSPGERATLSCRASQSISGSYLAWYQQKPGQAPRLLIYGASTRATGIPARFSGSGSGTEFTLTISSLQSEDFAVYYCQQYGSFPFTFGPGTKVDIK
Regarding B9, the binding result in [3] and in [4] was “no binding (tested: about 30 µg/mL)” in each case. The Kd in assay [7] amounted to 1320 nM; in [8], 26.2 nM; in assay [9] it was 297 nM. The “EC50 (read off the curve)” value in assay [5] is approximately 0.3 µg/mL; in assay [6] it was approximately 0.2 µg/mL.
